Data on three molecules can be found in patent publication US20260132208A1 (DOMAIN THERAPEUTICS, published 2026).

Values joined by “and” are separate entries in the source; they are usually repeats but may differ in a detail not shown here. Equal entries are not always repeated.

Assay [1] concerns the target T1, human CCR8 (human, UniProt P51685 1-355). Nature of the assay: cell-based or functional assay.
The target in assay [2] is T1, human CCR8. Nature of the assay: cell-based or functional assay. This is another data set of the same source.
For assay [3], the target named is T1, human CCR8. The experiment in a line: flow cytometry, human activated T cells pre-saturated with 200 nM hCCL1. As to the method: Unbound antibodies were washed away with PBS (Invitrogen by Thermofisher Scientific, Illkirch-Graffenstaden, France) supplemented by 2% Fetal Bovine Serum (Invitrogen by Thermofisher Scientific, Illkirch-Graffenstaden, France) and 2 mM EDTA (Invitrogen by Thermofisher Scientific, Illkirch-Graffenstaden, France). Subsequently, cells are centrifuged (5 min at 400 g) and bound antibody is detected with F(ab′)2-Goat anti-Mouse IgG (H+L) Cross-Adsorbed Secondary Antibody, Alexa Fluor 488 (dilution 1/500) (Invitrogen by Thermofisher Scientific, Illkirch-Graffenstaden, France) or with F(ab′)₂-Goat anti-Human IgG Fc Secondary Antibody, PE (Invitrogen by Thermofisher Scientific, Illkirch-Graffenstaden, France) (dilution 1/1000) at 4° C. for 30 min. Detection reagent is washed away and cells are centrifuged (5 min at 400 g) and resuspended in 30 μL PBS. Bound detection antibody is quantified on a MacsQuant16 (Miltenyi, Gladbach, Germany) (B1 or B2 channel, 5000 events per acquisition). During the experiment, the respective isotype mAb controls (mouse IgG1, mouse IgG2a, mouse IgG2b, mouse IgG3 or human IgG1) (Biolegend, Amsterdam, The Netherlands) are included to exclude any unspecific binding events. EC50 values were determined via nonlinear fit “log (agonist) vs.response—Variable slope (four parameters)” function of Graphpad prism. EC50 values were not constantly determined in the same experiments.
Binding characteristics of anti-CCR8 mAb cellular reactivity was further investigated by testing their binding to activated T cells. […] For some anti-CCR8 antibodies, their binding on hCCR8 from human activated T cells was tested after a pre-saturation with 200 nM of hCCL1.
For orientation: A flow cytometer gives signals particle by particle.

Assay [4] deals with T1, human CCR8. The experiment in a line: flow cytometry, HUT78 cells (endogenous CCR8). Here is the method: (§1) In human activated T cells model, prior to mAb incubation, cells were first incubated with 200 nM of hCCL1 (R&D Systems, Minneapolis, MN, USA) or buffer PBS (Invitrogen by Thermofisher Scientific, Illkirch-Graffenstaden, France) supplemented by 2% Fetal Bovine Serum (Invitrogen by Thermofisher Scientific, Illkirch-Graffenstaden, France) and 2 mM EDTA (Invitrogen by Thermofisher Scientific, Illkirch-Graffenstaden, France) during 1 hour at 4° C. To determine EC50 value, 8 concentrations of anti-CCR8 mAb were tested. Unbound antibodies were washed away with PBS (Invitrogen by Thermofisher Scientific, Illkirch-Graffenstaden, France) supplemented by 2% Fetal Bovine Serum (Invitrogen by Thermofisher Scientific, Illkirch-Graffenstaden, France) and 2 mM EDTA (Invitrogen by Thermofisher Scientific, Illkirch-Graffenstaden, France). Subsequently, cells are centrifuged (5 min at 400 g) and bound antibody is detected with F(ab′)2-Goat anti-Mouse IgG (H+L) Cross-Adsorbed Secondary Antibody, Alexa Fluor 488 (dilution 1/500) (Invitrogen by Thermofisher Scientific, Illkirch-Graffenstaden, France) or with F(ab′)₂-Goat anti-Human IgG Fc Secondary Antibody, PE (Invitrogen by Thermofisher Scientific, Illkirch-Graffenstaden, France) (dilution 1/1000) at 4° C. for 30 min. Detection reagent is washed away and cells are centrifuged (5 min at 400 g) and resuspended in 30 μL PBS. Bound detection antibody is quantified on a MacsQuant16 (Miltenyi, Gladbach, Germany) (B1 or B2 channel, 5000 events per acquisition). During the experiment, the respective isotype mAb controls (mouse IgG1, mouse IgG2a, mouse IgG2b, mouse IgG3 or human IgG1) (Biolegend, Amsterdam, The Netherlands) are included to exclude any unspecific binding events. EC50 values were determined via nonlinear fit “log (agonist) vs.response—Variable slope (four parameters)” function of Graphpad prism. EC50 values were not constantly determined in the same experiments.
Anti-CCR8 mAb cellular reactivity was also evaluated on native human CCR8 from HUT78 cell line by flow cytometry. In Table 4.3, Mean Fluorescence Intensity (Fold change to isotype control), the percentage of labelled cells and EC50 in nM of some anti-CCR8 antibodies are presented.

The target in assay [5] is T1, human CCR8. Nature of the assay: flow cytometry, human activated T cells (endogenous CCR8). Here is the method: as §1
Binding characteristics of anti-CCR8 mAb cellular reactivity was further investigated by testing their binding to activated T cells.

The target of assay [6] is T1, human CCR8. Nature of the assay: cell-based or functional assay. This is another data set of the same source.
Assay [7] addresses T2, human CCR8 with a SNAP-tag at the N-terminus (human, UniProt P51685 1-355, SNAP-tag labelled covalently with Lumi4-Terbium).
T2 construct: also called hCCR8 SNAP-tag; CCR8 SNAP-tag
Nature of the assay: HTRF Tag-lite, inhibition of hCCL1-AF647 binding to SNAP-hCCR8 on HEK-293 cells. For orientation: Time-resolved FRET reads energy transfer from a long-lived donor to a nearby acceptor.

B1: anti-CCR8 mAb 1-20 (antibody, human IgG1, kappa)
heavy: not shown
light: DIVMTQAAPSLSVTPGESASISCTSSKSLLHSNGNTYLYWFLQKPGQSPQLLIYRMSNLASGVPDRFSGSGSGTAFTLKISRVEAEDVGVYYCMQHREYPFTFGSGTKLEIKRTVAAPSVFIFPPSDEQLKSGTASVVCLLNNFYPREAKVQWKVDNALQSGNSQESVTEQDSKDSTYSLSSTLTLSKADYEKHKVYACEVTHQGLSSPVTKSFNRGEC
notes: Humanized mAb, human IgG1 / kappa
As to B1, the “IC50 of CCL1-induced hCCR8 Gi2 signaling (BRET, HEK-293)” value (“IC50 … (BRET, HEK-293)” below) in the assay with human CCR8 [1] is 0.029 µg/mL and 0.194 nM. In the assay with human CCR8 [2], the “residual hCCL1 (100 nM) Gi2 response, protocol #2, mAb 0.08 µg/mL” value is 62%; the “residual hCCL1 (100 nM) Gi2 response, protocol #2, mAb 0.4 µg/mL” value turned out to be 38%; the “residual hCCL1 (100 nM) Gi2 response, protocol #2, mAb 10 µg/mL” value amounted to 30%; the “residual hCCL1 (100 nM) Gi2 response, protocol #3, mAb 0.05 µg/mL” value stood at 94%. Besides, in the assay with human CCR8 [2], the “residual hCCL1 (100 nM) Gi2 response, protocol #3, mAb 0.5 µg/mL” value came to 63% and the “residual hCCL1 (100 nM) Gi2 response, protocol #3, mAb 5 µg/mL” value was found to be 39%. For the same molecule, the “% of labelled cells” value with human CCR8 [3] was determined as 64%. Moreover, in the assay with human CCR8 [4], the “% of labelled cells” value came out at 23%. In the assay with human CCR8 [5], the “% of labelled cells” value is 79%. The “extrapolated top plateau of hCCL1 curve with 5 µg/mL mAb, protocol #3” value with human CCR8 [6] was 517000 % of hCCL1 (100 nM). In assay [7], this molecule had an IC50 of 0.09 µg/mL and a Ki of 0.05 µg/mL.

B2: anti-CCR8 mAb 1-22 (antibody, human IgG1, kappa, V domains shown)
VH: EVQLLESGGGLVQPGGSLRLSCAASGFTFNAYAMNWVRQAPGKGLEWVARIRSKSNDYATYYGDSVKGRFTISRDNSKNTLYLQMNSLRAEDTAVYYCVRGREAYYRYDGGYYAMDVWGQGTTVTVSS
VL: DIVMTQSPLSLPVTPGEPASISCRSSKSLLHSNGNTYLYWFLQKPGQSPQLLIYRVSNLASGVPDRFSGSGSGTDFTLKISRVEAEDVGVYYCMQHREYPFTFGQGTKLEIKR
notes: as for B1
As for B2, the “IC50 … (BRET, HEK-293)” value in the assay with human CCR8 [1] was 0.068 µg/mL and 0.452 nM. Also, in the assay with human CCR8 [2], the “residual hCCL1 (100 nM) Gi2 response, protocol #2, mAb 0.08 µg/mL” value worked out at 94%; the “residual hCCL1 (100 nM) Gi2 response, protocol #2, mAb 0.4 µg/mL” value amounted to 77%; the “residual hCCL1 (100 nM) Gi2 response, protocol #2, mAb 10 µg/mL” value is 31%; the “residual hCCL1 (100 nM) Gi2 response, protocol #3, mAb 0.05 µg/mL” value worked out at 110%. In the assay with human CCR8 [2], the “residual hCCL1 (100 nM) Gi2 response, protocol #3, mAb 0.5 µg/mL” value amounted to 76% and the “residual hCCL1 (100 nM) Gi2 response, protocol #3, mAb 5 µg/mL” value worked out at 33%. Besides, the “% of labelled cells” value with human CCR8 [3] is 92%. The “% of labelled cells” value with human CCR8 [4] came out at 97%. Besides, the “% of labelled cells” value with human CCR8 [5] was 92%. Besides, the “extrapolated top plateau of hCCL1 curve with 5 µg/mL mAb, protocol #3” value with human CCR8 [6] is 76400 % of hCCL1 (100 nM). In assay [7], the IC50 is 0.15 µg/mL; the Ki is 0.08 µg/mL and 0.5 nM.

B3: anti-CCR8 mAb 1-25 (antibody, human IgG1, kappa, V domains shown)
VH: QVQLVESGGGVVQPGRSLRLSCAASGFTFSNYRMHWVRQAPGKGLEWIAVIKVKSDNYGANYADSVKGRFTISRDNSKNTLYLQMNSLRAEDTAVYYCSSPTYPGSSGFAYWGQGTLVTVSS
VL: DIQMTQSPSSLSASVGDRVTITCRASQDISNYLNWYQQKPDGTVKLLIYYTSRLHTGVPSRFSGSGSGTDYTLTISNLQQEDIATYFCQQGNKFPPTFGGGTKVEINR
notes: as for B1
As to B3, in the assay with human CCR8 [1], the “IC50 … (BRET, HEK-293)” value was 0.02 µg/mL and 0.134 nM. Also, the “% of labelled cells” value came to 54% with human CCR8 [3], 93% with human CCR8 [4] and 63% with human CCR8 [5]. In addition, in assay [7], the IC50 was 0.02 µg/mL. Also, the Ki in assay [7] is 0.01 µg/mL and 0.07 nM.

What is called IC50 is the concentration needed to halve the response being measured. Low readings indicate greater potency, high ones weaker potency.
